Target: His6-Rv3208 (FasR from M. tuberculosis) (M. tuberculosis H37Rv)
Assay: SEC

In the case of “His6-Rv3208 (FasR from M. tuberculosis) (natural protein)”, the stoichiometry N is reported as 2.
